Reference: US8465945B2, “Method for production and use of mite group 1 proteins” (Merck Patent GmbH, priority 1999, dated 2013)

Assays:
[1] = system: IgE from mite-allergic or normal human sera; test: ELISA, binding of IgE from human sera to coated Der f 1 proteins or mite extracts, detected with FcεR1α-biotin
[2] = system: IgE from pooled mite-allergic human sera; test: Monoclonal Capture ELISA (Example 8B, Table 7); type: binding
Experimental: (§1) Assays were carried out as follows. A microtiter plate as described in Example 5 was coated overnight at 4° C. with 100 ng/well of anti-Der f 1 protein monoclonal antibody 6A8, denoted herein as anti-Der f 1 MAb 6A8, provided by Dr. Martin Chapman. The plate was washed in the manner described above. The following proteins were then added to wells, having been diluted in Assay Buffer in a 2-fold dilution series, from 0.75 to 50 ng/well: Heska native Derf1, P. pastoris-expressed PDerf1303b, and E. coli-expressed PDerf1303c. After incubation for 1 hour at room temperature, plates were washed as described in Example 5. Then 100 μl per well of a 1:1000 dilution in Assay Buffer of biotinylated anti-Der f 1 monoclonal antibody 4C1, also denoted anti-Der f 1 MAb 4C1, provided by Dr. Martin Chapman, was added for 1 hour at room temperature. Plates were washed, streptavidin-HRP conjugate was added, and plates were developed as described in Example 5.
B. The Der f 1 proteins described in Example 8B were reacted as described in Example 6 with a pool of serum samples collected from 16 mite-allergic human patients.

[3] = system: anti-Der f 1 MAb 6A8 (capture) and anti-Der f 1 MAb 4C1 (detection); test: Monoclonal Capture ELISA; type: binding
Experimental: as §1

[4] = Cysteine protease activity, cleavage of quenched fluorogenic substrate; type: biochemical; settings: for Emission (w/o E-64): 50 μM substrate, 2 hours, excitation 380 nm, emission 460 nm; for Emission (w/E-64): pre-incubated 30 minutes with E-64 1 μg/ml
Experimental: Native Der f 1 is believed to be a cysteine protease, based on homology to papain; see, for example, Chua et al, 1992, J Exp Med 167, 175-182. The Der f 1 protein secreted as a mature form by recombinant cell P. pastoris HCY215 (i.e., P. pastoris strain X33 transformed with plasmid pBC128 containing nucleic acid molecule nDerf1909b (coding strand of SEQ ID NO:28) which encodes the pro-form of Der f 1 (amino acid sequence SEQ ID NO:29)) was tested for cysteine protease activity in the following manner. Three concentrations of protein were tested for their abilities to cleave an artificial substrate in the presence or absence of a cysteine protease inhibitor. Specifically, three pairs of samples containing 0.56 μg, 1.1 μg, or 5.6 μg of P. pastoris-expressed Der f 1 protein, respectively, were incubated for 30 minutes at room temperature in 20 μl of 50 mM Tris-HCl, pH 8. One member of each pair also contained the irreversible cysteine protease inhibitor E-64 at a concentration of 1 μg/ml. After the pre-incubation, 100 μl of 50 μM quenched fluorogenic substrate z-Val-Leu-Arg-AMC (available from Enzyme Systems Products, Livermore, Calif.) was added to all six samples, and the samples were incubated for 2 hours at room temperature. Fluorescence was measured using a Perkin Elmer Luminescence Spectrometer (model #LS50B) at an excitation wavelength of 380nm and an emission wavelength of 460 nm.

B1: PDerf1303b: Recombinant Der f 1 expressed by P. pastoris HCY215 from nDerf1909b (pro-form, SEQ ID NO:29); actually secreted as mature form (protein, listed as Dermatophagoides farinae)
chain: RPASIKTFEEFKKAFNKNYATVEEEEVARKNFLESLKYVEANKGAINHLSDLSLDEFKNRYLMSAEAFEQLKTQFDLNAETSACRINSVNVPSELDLRSLRTVTPIRMQGGCGSCWAFSGVAATESAYLAYRNTSLDLSEQELVDCASQHGCHGDTIPRGIEYIQQNGVVEERSYPYVAREQRCRRPNSQHYGISNYCQIYPPDVKQIREALTQTHTAIAVIIGIKDLRAFQHYDGRTIIQHDNGYQPNYHAVNIVGYGSTQGDDYWIVRNSWDTTWGDSGYGYFQAGNNLMMIEQYPYVVIM
For B1, the “OD, bound IgE” value ([1]; Assay Number 1, serum human 1916) was 11 OD multiplied by 1000, the “OD, bound IgE” value ([1]; Assay Number 1, serum human3848) was 1192 OD multiplied by 1000 and the “OD, bound IgE” value ([1]; Assay Number 1, serum human 3958) was 2244 OD multiplied by 1000. For the same molecule, the “OD, bound IgE” value ([1]; Assay Number 1, serum human 3960) was 646 OD multiplied by 1000, the “OD, bound IgE” value ([1]; Assay Number 1, serum human 3961) was 433 OD multiplied by 1000 and the “OD, bound IgE” value ([1]; Assay Number 1, serum human 3987) was 1377 OD multiplied by 1000. The “OD, bound IgE” value ([1]; Assay Number 1, serum human 4289) was 182 OD multiplied by 1000, the “OD, bound IgE” value ([1]; Assay Number 1, serum human 4467) was 694 OD multiplied by 1000 and the “OD, bound IgE” value ([1]; Assay Number 1, serum human 5207) was 2153 OD multiplied by 1000. For the same molecule, the “OD, bound IgE” value ([1]; Assay Number 1, serum human pool) was 1547 OD multiplied by 1000, the “OD, bound IgE” value ([1]; Assay Number 2, serum Heska human B) was 2 OD multiplied by 1000 and the “OD, bound IgE” value ([1]; Assay Number 2, serum Heska human C) was 4 OD multiplied by 1000. For the same molecule, the “OD, bound IgE” value ([1]; Assay Number 2, serum Heska human D) was 0 OD multiplied by 1000, the “OD, bound IgE” value ([1]; Assay Number 2, serum Heska human E) was 1 OD multiplied by 1000 and the “OD, bound IgE” value ([1]; Assay Number 2, serum Heska human F) was 0 OD multiplied by 1000. For the same molecule, the “OD, bound IgE” value ([1]; Assay Number 2, serum Heska human G) was 0 OD multiplied by 1000, the “OD, bound IgE” value ([1]; Assay Number 2, serum Heska human H) was 0 OD multiplied by 1000 and the “OD, bound IgE” value ([1]; Assay Number 2, serum Heska human I) was 4 OD multiplied by 1000. For the same molecule, the “OD, bound IgE” value ([1]; Assay Number 2, serum Heska human J) was 0 OD multiplied by 1000, the “OD, bound IgE” value ([1]; Assay Number 2, serum Heska human K) was 0 OD multiplied by 1000 and the “OD, bound IgE” value ([1]; Assay Number 2, serum Heska human L) was 0 OD multiplied by 1000. For the same molecule, the “OD, bound IgE” value ([1]; Assay Number 2, serum Heska human M) was 0 OD multiplied by 1000, the “OD, bound IgE” value ([1]; Assay Number 2, serum Heska human N) was 370 OD multiplied by 1000 and the “OD, bound IgE” value ([1]; Assay Number 2, serum Heska human O) was 0 OD multiplied by 1000. The “OD, bound IgE” value ([1]; Assay Number 2, serum Heska human P) was 0 OD multiplied by 1000, the “OD, bound IgE” value ([1]; Assay Number 2, serum Heska human Q) was 0 OD multiplied by 1000 and the “OD, bound IgE” value ([1]; Assay Number 2, serum Heska human R) was 0 OD multiplied by 1000. The “OD, bound IgE” value ([1]; Assay Number 2, serum human 1916) was 15 OD multiplied by 1000, the “OD, bound IgE” value ([1]; Assay Number 2, serum human 3848) was 904 OD multiplied by 1000 and the “OD, bound IgE” value ([1]; Assay Number 2, serum human 3958) was 2369 OD multiplied by 1000. For the same molecule, the “OD, bound IgE” value ([1]; Assay Number 2, serum human 3960) was 1046 OD multiplied by 1000, the “OD, bound IgE” value ([1]; Assay Number 2, serum human 3961) was 709 OD multiplied by 1000 and the “OD, bound IgE” value ([1]; Assay Number 2, serum human 3987) was 2457 OD multiplied by 1000. For the same molecule, the “OD, bound IgE” value ([1]; Assay Number 2, serum human 4289) was 160 OD multiplied by 1000, the “OD, bound IgE” value ([1]; Assay Number 2, serum human 4467) was 660 OD multiplied by 1000 and the “OD, bound IgE” value ([1]; Assay Number 2, serum human 5207) was 1304 OD multiplied by 1000. The “OD, bound IgE” value ([1]; Assay Number 2, serum human pool) was 1551 OD multiplied by 1000, the “reactivity: share of human serum samples reactive to native Der f 1 proteins that are also reactive to the recombinant protein” value ([1]; Table 1, 9 human samples (8 sera and pool), OD numbers greater than 100 positive) was 100% and the “reactivity: share of human serum samples reactive to native Der f 1 proteins that are also reactive to the recombinant protein” value ([1]; Table 2, 10 human serum samples) was 100%. For the same molecule, the “OD, bound IgE” value ([1]; Table 3, sera 429, PDerf1303b preparation number A166-26, PDerf1223b preparation 1000-7) was 104 OD multiplied by 1000, the “OD, bound IgE” value ([1]; Table 3, sera 1916, PDerf1303b preparation number A166-26, PDerf1223b preparation 1000-7) was 0 OD multiplied by 1000 and the “OD, bound IgE” value ([1]; Table 3, sera 3848, PDerf1303b preparation number A166-26, PDerf1223b preparation 1000-7) was 457 OD multiplied by 1000. The “OD, bound IgE” value ([1]; Table 3, sera 3958, PDerf1303b preparation number A166-26, PDerf1223b preparation 1000-7) was 2616 OD multiplied by 1000, the “OD, bound IgE” value ([1]; Table 3, sera 3960, PDerf1303b preparation number A166-26, PDerf1223b preparation 1000-7) was 1420 OD multiplied by 1000 and the “OD, bound IgE” value ([1]; Table 3, sera 3961, PDerf1303b preparation number A166-26, PDerf1223b preparation 1000-7) was 744 OD multiplied by 1000. For the same molecule, the “OD, bound IgE” value ([1]; Table 3, sera 3987, PDerf1303b preparation number A166-26, PDerf1223b preparation 1000-7) was 2588 OD multiplied by 1000, the “OD, bound IgE” value ([1]; Table 3, sera 4467, PDerf1303b preparation number A166-26, PDerf1223b preparation 1000-7) was 780 OD multiplied by 1000 and the “OD, bound IgE” value ([1]; Table 3, sera 5207, PDerf1303b preparation number A166-26, PDerf1223b preparation 1000-7) was 1887 OD multiplied by 1000. The “OD, bound IgE” value ([1]; Table 3, sera human pool, PDerf1303b preparation number A166-26, PDerf1223b preparation 1000-7) was 1226 OD multiplied by 1000, the “OD, bound IgE” value ([1]; Table 6, pool of sera from 16 mite-allergic human patients, 6.2 ng protein per well) was 53 OD and the “OD, bound IgE” value ([1]; Table 6, pool of sera from 16 mite-allergic human patients, 12.5 ng protein per well) was 178 OD. For the same molecule, the “OD, bound IgE” value ([1]; Table 6, pool of sera from 16 mite-allergic human patients, 25 ng protein per well) was 240 OD, the “OD, bound IgE” value ([1]; Table 6, pool of sera from 16 mite-allergic human patients, 50 ng protein per well) was 293 OD and the “OD, bound IgE” value ([1]; Table 6, pool of sera from 16 mite-allergic human patients, 100 ng protein per well) was 354 OD. The “OD, bound IgE” value ([1]; Table 6, pool of sera from 16 mite-allergic human patients, 200 ng protein per well) was 484 OD, the “OD, Monoclonal Capture ELISA” value ([2]; 0.39 ng protein per well) was 434 OD and the “OD, Monoclonal Capture ELISA” value ([2]; 0.78 ng protein per well) was 871 OD. The “OD, Monoclonal Capture ELISA” value ([2]; 1.55 ng protein per well) was 1399 OD, the “OD, Monoclonal Capture ELISA” value ([2]; 3.1 ng protein per well) was 2103 OD and the “OD, Monoclonal Capture ELISA” value ([2]; 6.25 ng protein per well) was 2463 OD. For the same molecule, the “OD, Monoclonal Capture ELISA” value ([2]; 12.5 ng protein per well) was 2388 OD, the “OD, Monoclonal Capture ELISA” value ([2]; 25 ng protein per well) was 2389 OD and the “OD, protein captured by MAb 6A8 and detected by MAb 4C1” value (“OD, protein captured” for short) ([3]; 0.75 ng protein per well) was 405 OD. For the same molecule, the “OD, protein captured” value ([3]; 1.5 ng protein per well) was 916 OD, the “OD, protein captured” value ([3]; 2.5 ng protein per well) was 2088 OD and the “OD, protein captured” value ([3]; 3.1 ng protein per well) was 1544 OD. The “OD, protein captured” value ([3]; 6.25 ng protein per well) was 1961 OD, the “OD, protein captured” value ([3]; 25 ng protein per well) was 2156 OD and the “OD, protein captured” value ([3]; 50 ng protein per well) was 2148 OD. For the same molecule, the “Emission (w/o E-64)” value ([4]; 0.56 micrograms rDer f 1) was 0.861, the “Emission (w/E-64)” value ([4]; 0.56 micrograms rDer f 1) was 0.302 and the “Emission (w/o E-64)” value ([4]; 1.1 micrograms rDer f 1) was 1.693. The “Emission (w/E-64)” value ([4]; 1.1 micrograms rDer f 1) was 0.765, the “Emission (w/o E-64)” value ([4]; 5.6 micrograms rDer f 1) was 9.671 and the “Emission (w/E-64)” value ([4]; 5.6 micrograms rDer f 1) was 2.369. For the same molecule, the cysteine protease activity ([4]; can be inhibited by pre-incubation with E-64) was “exhibits cysteine protease activity”.
